Assay results reported in patent US20210255174.

Assays:
[1] = biological target: Control peptide #112: [5-Fam]…[DABCYL]-Hex
[2] = biological target: Control peptide #113: [4-Mu]…[DABCYL]-Hex

| Protein | KM [1] | KM [2] |
| --- | --- | --- |
| Proteinase K (protein) AAQTNAPWGLARISSTSPGTSTYYYDESAGQGSCVYVIDTGIEASHPEFEGRAQMVKTYYYSSRDGNGHGTHCAGTVGSRTYGVAKKTQLFGVKVLDDNGSGQYSTIIAGMDFVASDKNNRNCPKGVVASLSLGGGYSSSVNSAAARLQSSGVMVAVAAGNNNADARNYSPASEPSVCTVGASDRYDRRSSFSNYGSVLDIFGPGTSILSTWIGGSTRSISGTSMATPHVAGLAAYLMTLGKTTAASACRYIADTANKGDLSNIPFGTVNLLAYNNYQA | 3.37 µM | 4.87 µM |
| Thermolysin (protein) ITGTSTVGVGRGVLGDQKNINTTYSTYYYLQDNTRGNGIFTYDAKYRTTLPGSLWADADNQFFASYDAPAVDAHYYAGVTYDYYKNVHNRLSYDGNNAAIRSSVHYSQGYNNAFWNGSQMVYGDGDGQTFIPLSGGIDVVAHELTHAVTDYTAGLIYQNESGAINEAISDIFGTLVEFYANKNPDWEIGEDVYTPGISGDSLRSMSDPAKYGDPDHYSKRYTGTQDNGGVHINSGIINKAAYLISQGGTHYGVSVVGIGRDKLGKIFYRALTQYLTPTSNFSQLRAAAVQSATDLYGSTSQEVASVKQAFDAVGVK | 3.58 µM | 6.45 µM |
